Data reported in the supplement of paper PMC11246515.
± gives the standard deviation of the averaged measurements.

Assay: total protein half-life in vivo (active degradation + dilution); higher = more stable protein
[1] = E. coli NCM3722 delta-clpP delta-lon delta-hslV, growth: N-lim chemostat, doubling time 6 h
[2] = E. coli NCM3722 delta-clpP, growth: N-lim chemostat, doubling time 6 h
[3] = E. coli NCM3722 delta-lon, growth: N-lim chemostat, doubling time 6 h
[4] = E. coli NCM3722 delta-smpB, growth: N-lim chemostat, doubling time 6 h
[5] = wild type E. coli NCM3722, growth: C-lim chemostat, doubling time 3 h
[6] = wild type E. coli NCM3722, growth: C-lim chemostat, doubling time 6 h
[7] = wild type E. coli NCM3722, growth: C-lim chemostat, doubling time 12 h
[8] = wild type E. coli NCM3722, growth: N-lim chemostat, doubling time 6 h
[9] = wild type E. coli NCM3722, growth: N-lim chemostat, doubling time 12 h
[10] = wild type E. coli NCM3722, growth: P-lim chemostat, doubling time 6 h
[11] = E. coli NCM3722 delta-hslV, growth: N-lim chemostat, doubling time 6 h
[12] = wild type E. coli NCM3722, growth: P-lim chemostat, doubling time 12 h

| Sequence | total protein half-life in vivo [1] [h] | total protein half-life in vivo [2] [h] | total protein half-life in vivo [3] [h] | total protein half-life in vivo [4] [h] | total protein half-life in vivo [5] [h] | total protein half-life in vivo [6] [h] | total protein half-life in vivo [7] [h] | total protein half-life in vivo [8] [h] | total protein half-life in vivo [9] [h] | total protein half-life in vivo [10] [h] | total protein half-life in vivo [11] [h] | total protein half-life in vivo [12] [h] |
| --- | --- | --- | --- | --- | --- | --- | --- | --- | --- | --- | --- | --- |
| MKNCVIVSAVRTAIGSFNGSLASTSAIDLGATVIKAAIERAKIDSQHVDEVIMGNVLQAGLGQNPARQALLKSGLAETVCGFTVNKVCGSGLKSVALAAQAIQAGQAQSIVAGGMENMSLAPYLLDAKARSGYRLGDGQVYDVILRDGLMCATHGYHMGITAENVAKEYGITREMQDELALHSQRKAAAAIESGAFTAEIVPVNVVTRKKTFVFSQDEFPKANSTAEALGALRPAFDKAGTVTAGNASGINDGAAALVIMEESAALAAGLTPLARIKSYASGGVPPALMGMGPVPATQKALQLAGLQLADIDLIEANEAFAAQFLAVGKNLGFDSEKVNVNGGAIALGHPIGASGARILVTLLHAMQARDKTLGLATLCIGGGQGIAMVIERLN | 4.78 ± 0.92 | 3.36 | 2.93 ± 0.073 | 2.808 ± 0.0077 | 3.34 | 5.45 ± 1.1 | 8 | 2.92 ± 0.27 | 3.67 ± 0.067 | 5.43 |  |  |
| MKNNPLISIYMPTWNRQQLAIRAIKSVLRQDYSNWEMIIVDDCSTSWEQLQQYVTALNDPRITYIHNDINSGACAVRNQAIMLAQGEYITGIDDDDEWTPNRLSVFLAHKQQLVTHAFLYANDYVCQGEVYSQPASLPLYPKSPYSRRLFYKRNIIGNQVFTWAWRFKECLFDTELKAAQDYDIFLRMVVEYGEPWKVEEATQILHINHGEMQITSSPKKFSGYFHFYRKHKDKFDRASKKYQLFTLYQIRNKRMTWRTLLTLLSVRNGKRLADGIRGR | 3.18 |  | 2.71 ± 0.069 | 1.7 ± 0.1 |  |  |  |  |  |  |  |  |
| MKNNSQLLMPREKMLKFGISALTDVELLALFLRTGTRGKDVLTLAKEMLENFGSLYGLLTSEYEQFSGVHGIGVAKFAQLKGIAELARRYYNVRMREESPLLSPEMTREFLQSQLTGEEREIFMVIFLDSQHRVITHRRLFSGTLNHVEVHPREIIREAIKINASALILAHNHPSGCAEPSKADKLITERIIKSCQFMDLRVLDHIVIGRGEYVSFAERGWI |  |  |  |  | 3.03 |  |  | 4.31 |  |  |  |  |
| MKNRTLGSVFIVAGTTIGAGMLAMPLAAAGVGFSVTLILLIGLWALMCYTALLLLEVYQHVPADTGLGTLAKRYLGRYGQWLTGFSMMFLMYALTAAYISGAGELLASSISDWTGISMSATAGVLLFTFVAGGVVCVGTSLVDLFNRFLFSAKIIFLVVMLVLLLPHIHKVNLLTLPLQQGLALSAIPVIFTSFGFHGSVPSIVSYMDGNIRKLRWVFIIGSAIPLVAYIFWQVATLGSIDSTTFMGLLANHAGLNGLLQALREMVASPHVELAVHLFADLALATSFLGVALGLFDYLADLFQRSNTVGGRLQTGAITFLPPLAFALFYPRGFVMALGYAGVALAVLALIIPSLLTWQSRKHNPQAGYRVKGGRPALVVVFLCGIAVIGVQFLIAAGLLPEVG [P0AAD4] |  |  |  | 6.48 |  |  |  |  |  |  |  |  |
| MKNTELEQLINEKLNSAAISDYAPNGLQVEGKETVQKIVTGVTASQALLDEAVRLGADAVIVHHGYFWKGESPVIRGMKRNRLKTLLANDINLYGWHLPLDAHPELGNNAQLAALLGITVMGEIEPLVPWGELTMPVPGLELASWIEARLGRKPLWCGDTGPEVVQRVAWCTGGGQSFIDSAARFGVDAFITGEVSEQTIHSAREQGLHFYAAGHHATERGGIRALSEWLNENTDLDVTFIDIPNPA [P0AFP6] | 4.31 ± 0.15 | 3.736 ± 0.0077 | 4.42 ± 0.65 | 3.7 ± 0.28 | 2.86 ± 0.27 | 6.13 ± 0.52 | 10.3 ± 0.29 | 3.66 ± 0.23 | 5.74 ± 0.75 | 5.26 ± 0.41 | 3.9 ± 0.38 | 11.2 ± 1.2 |
| MKNTKLLLAIATSAALLTGCQNTHGIDTNMAISSGLNAYKAATLSDADAKAIANQGCAEMDSGNQVASKSSKYGKRLAKIAKALGNNINGTPVNYKVYMTSDVNAWAMANGCVRVYSGLMDMMNDNEIEGVLGHELGHVALGHSLAEMKASYAIVAARDAISATSGVASQLSRSQLGDIAEGAINAKYSRDKESEADDFSFDLLKKRGISTQGLVGSFETLASLDGGRTQSMFDSHPPSTERAQHIRDRIASGK |  | 3.87 | 5.88 |  |  |  |  |  |  |  | 4.19 |  |
| MKNVGFIGWRGMVGSVLMQRMVEERDFDAIRPVFFSTSQLGQAAPSFGGTTGTLQDAFDLEALKALDIIVTCQGGDYTNEIYPKLRESGWQGYWIDAASSLRMKDDAIIILDPVNQDVITDGLNNGIRTFVGGNCTVSLMLMSLGGLFANDLVDWVSVATYQAASGGGARHMRELLTQMGHLYGHVADELATPSSAILDIERKVTTLTRSGELPVDNFGVPLAGSLIPWIDKQLDNGQSREEWKGQAETNKILNTSSVIPVDGLCVRVGALRCHSQAFTIKLKKDVSIPTVEELLAAHNPWAKVVPNDREITMRELTPAAVTGTLTTPVGRLRKLNMGPEFLSAFTVGDQLLWGAAEPLRRMLRQLA [P0A9Q9] | 4.6 ± 1.1 | 3.96 ± 0.59 | 4.54 ± 0.57 | 3.49 ± 0.27 | 2.97 ± 0.19 | 5.55 ± 0.092 | 9.4 ± 0.89 | 3.76 ± 0.22 | 5.831 ± 0.054 | 5.76 ± 0.3 | 3.75 ± 0.11 | 11 ± 1.3 |
| MKNWKTSAESILTTGPVVPVIVVKKLEHAVPMAKALVAGGVRVLEVTLRTECAVDAIRAIAKEVPEAIVGAGTVLNPQQLAEVTEAGAQFAISPGLTEPLLKAATEGTIPLIPGISTVSELMLGMDYGLKEFKFFPAEANGGVKALQAIAGPFSQVRFCPTGGISPANYRDYLALKSVLCIGGSWLVPADALEAGDYDRITKLAREAVEGAKL [P0A955] | 4.94 ± 0.33 | 4.33 ± 0.52 | 4.92 ± 0.53 | 4.3 ± 0.16 | 2.99 ± 0.52 | 6.17 ± 0.77 | 9.18 ± 0.99 | 4.63 ± 0.16 | 7.2 ± 0.82 | 5.39 ± 0.082 | 4.66 ± 0.37 | 12.2 ± 0.37 |
| MKPARVPQTVVAPDCWGDLPWGKLYRKALERQLNPWFTKMYGFHLLKIGNLSAEINCEACAVSHQVNVSAQGMPVQVQADPLHLPFADKSVDVCLLAHTLPWCTDPHRLLREADRVLIDDGWLVISGFNPISFMGLRKLVPVLRKTSPYNSRMFTLMRQLDWLSLLNFEVLHASRFHVLPWNKHGGKLLNAHIPALGCLQLIVARKRTIPLTLNPMKQSKNKPRIRQAVGATRQCRKPQA | 5.49 ± 0.13 |  | 5.76 ± 1 | 7.25 ± 1 | 1.91 ± 0.15 | 4.59 ± 1.2 | 11.5 | 6.41 | 9.9 ± 3.1 | 5.31 ± 1.1 | 5.49 ± 0.6 | 10.6 ± 2.4 |
